Source: patent US20250129146A1, “COMBINED CANCER THERAPY WITH AN EPITHELIAL CELL ADHESION MOLECULE (EPCAM) INHIBITOR AND A WNT INHIBITOR” (ACADEMIA SINICA, priority 2021, published 2025)

Biological target: T1, recombinant FZD6 (Homo sapiens, UniProt O60353)
T1 construct: purchased Proteintech
T1 sequence (O60353 19-706): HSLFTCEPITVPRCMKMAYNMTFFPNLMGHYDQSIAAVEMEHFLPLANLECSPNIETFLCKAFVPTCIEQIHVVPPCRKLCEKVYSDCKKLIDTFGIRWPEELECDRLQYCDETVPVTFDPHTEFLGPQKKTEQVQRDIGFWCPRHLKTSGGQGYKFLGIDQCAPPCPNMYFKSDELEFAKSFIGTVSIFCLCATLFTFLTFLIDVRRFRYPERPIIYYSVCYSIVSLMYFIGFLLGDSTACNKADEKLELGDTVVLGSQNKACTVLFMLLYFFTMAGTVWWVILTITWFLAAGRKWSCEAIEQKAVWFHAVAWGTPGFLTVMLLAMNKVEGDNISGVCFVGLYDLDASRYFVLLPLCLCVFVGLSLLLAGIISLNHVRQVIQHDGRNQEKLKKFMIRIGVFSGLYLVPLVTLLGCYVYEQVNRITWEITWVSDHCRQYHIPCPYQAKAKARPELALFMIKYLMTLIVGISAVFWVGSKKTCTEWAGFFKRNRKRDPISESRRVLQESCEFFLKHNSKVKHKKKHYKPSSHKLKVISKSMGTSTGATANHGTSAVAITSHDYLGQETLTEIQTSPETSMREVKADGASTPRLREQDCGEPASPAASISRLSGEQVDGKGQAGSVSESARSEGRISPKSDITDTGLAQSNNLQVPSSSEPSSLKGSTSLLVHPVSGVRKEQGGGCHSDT
Test: ELISA of EpEX binding to Wnt receptor-coated plates (FZD6)
Conditions: EpEX-His alone, 2 hours; optical density at 450 nm
Experimental: For ELISA, wells (at least 6 wells per single protein) were coated with recombinant FZD6 (Proteintech), recombinant FZD7 (Proteintech), recombinant LRP5 (Proteintech), recombinant LRP6 (Proteintech) overnight at 4° C. The wells were then blocked with 1% BSA and treated with EpEX-his (Produced in house by Expi293 Expression System) for 2 hours. Otherwise, EpEX-His was incubated with EpAb2-6 overnight and the complex was used to treat the protein-coated plates for 2 hours. Further anti-His antibody (abeam) was used and TMB was performed to record optical density at 450 nm.

B1: EpEX: extracellular domain of EpCAM, produced in house by Expi293 Expression System (protein)
chain: QEECVCENYKLAVNCFVNNNRQCQCTSVGAQNTVICSKLAAKCLVMKAEMNGSKLGRRAKPEGALQNNDGLYDPDCDESGLFKAKQCNGTSMCWCVNTAGVRRTDKDTEITCSERVRTYWIIIELKHKAREKPYDSKSLRTALQKEITTRYQLDPKFITSILYENNVITIDLVQNSSQKTQNDVDIADVAYYFEKDVKGESLFHSKKMDLTVNGEQLDLDPGQTLIYYVDEKAPEFSMQGLKAGVIAVIVVVVIAVVAGIVVLVISRKKRMAKYEKAEIKEMGEMHRELNA
  EpEX binding to FZD6: bind with all receptor proteins
